# Values of other authors, collected in PMC10747851.
# Target: TfR (Homo sapiens) (UniProt P02786)
# Sequence (P02786 89-760): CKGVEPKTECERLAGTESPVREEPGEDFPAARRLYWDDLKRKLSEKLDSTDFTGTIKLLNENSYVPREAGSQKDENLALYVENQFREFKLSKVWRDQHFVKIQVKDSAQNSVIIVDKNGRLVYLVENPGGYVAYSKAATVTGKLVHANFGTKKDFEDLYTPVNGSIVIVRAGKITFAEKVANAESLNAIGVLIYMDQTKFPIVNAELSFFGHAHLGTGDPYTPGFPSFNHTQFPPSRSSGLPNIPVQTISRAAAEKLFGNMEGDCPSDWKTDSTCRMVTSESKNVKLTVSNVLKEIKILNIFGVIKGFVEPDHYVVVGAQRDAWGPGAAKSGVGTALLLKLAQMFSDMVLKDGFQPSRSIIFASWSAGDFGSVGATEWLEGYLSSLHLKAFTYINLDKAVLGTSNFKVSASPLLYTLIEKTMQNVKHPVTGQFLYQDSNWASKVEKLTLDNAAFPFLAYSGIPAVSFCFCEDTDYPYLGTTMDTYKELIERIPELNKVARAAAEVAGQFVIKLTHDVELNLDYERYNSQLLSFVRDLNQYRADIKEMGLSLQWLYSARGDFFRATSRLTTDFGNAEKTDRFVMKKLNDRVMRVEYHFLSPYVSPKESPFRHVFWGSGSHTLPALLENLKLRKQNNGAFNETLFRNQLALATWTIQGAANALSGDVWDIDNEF
substance,measurement,value
T7 peptide,Kd,10 nM
